From patent publication CN115505045A (MABWELL SHANGHAI BIOSCIENCE CO LTD, dated 2022)

T1: 鼠重组蛋白LAG-3(Cat:53069-M08H，北京义翘神州科技股份有限公司) (mouse, UniProt Q61790 24-442)
T1 construct: also called 小鼠LAG-3; 鼠LAG-3
T1 sequence (looked up): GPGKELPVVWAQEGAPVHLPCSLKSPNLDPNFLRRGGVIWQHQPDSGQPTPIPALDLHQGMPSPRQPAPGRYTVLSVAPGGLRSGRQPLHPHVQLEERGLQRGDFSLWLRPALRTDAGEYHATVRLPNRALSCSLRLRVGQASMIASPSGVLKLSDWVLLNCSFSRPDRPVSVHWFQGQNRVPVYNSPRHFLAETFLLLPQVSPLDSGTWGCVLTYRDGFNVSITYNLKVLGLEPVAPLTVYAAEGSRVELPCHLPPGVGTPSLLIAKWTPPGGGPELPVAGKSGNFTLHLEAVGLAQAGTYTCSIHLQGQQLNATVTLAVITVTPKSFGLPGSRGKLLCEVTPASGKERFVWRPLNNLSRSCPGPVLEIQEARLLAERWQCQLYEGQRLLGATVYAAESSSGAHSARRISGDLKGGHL

T2: LAG-3(NCBI登录号:NP_002277.4)全长, HEK293细胞表面 (human, UniProt P18627 23-525)
T2 construct: whole, on cells; also called HEK293-LAG-3; 细胞表面LAG-3
T2 sequence (looked up): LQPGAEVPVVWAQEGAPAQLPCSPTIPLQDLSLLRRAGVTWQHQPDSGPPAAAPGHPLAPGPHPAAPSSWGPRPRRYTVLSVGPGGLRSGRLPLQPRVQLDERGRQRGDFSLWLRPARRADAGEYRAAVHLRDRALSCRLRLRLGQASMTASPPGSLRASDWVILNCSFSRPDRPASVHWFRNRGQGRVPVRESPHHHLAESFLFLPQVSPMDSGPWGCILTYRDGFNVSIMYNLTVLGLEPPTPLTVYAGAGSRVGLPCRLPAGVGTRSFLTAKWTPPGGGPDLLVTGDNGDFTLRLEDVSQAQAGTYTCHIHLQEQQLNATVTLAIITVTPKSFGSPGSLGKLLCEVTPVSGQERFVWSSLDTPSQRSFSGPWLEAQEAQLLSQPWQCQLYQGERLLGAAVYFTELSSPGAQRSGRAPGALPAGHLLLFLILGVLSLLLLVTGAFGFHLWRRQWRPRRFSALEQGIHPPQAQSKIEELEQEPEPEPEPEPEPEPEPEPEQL

T3: 人LAG-3胞外区融合蛋白(义翘神州，Cat:16498-H08H) (human, UniProt P18627 23-450)
T3 construct: extracellular domain; also called 人重组蛋白LAG-3; 人LAG-3重组蛋白
T3 sequence (looked up): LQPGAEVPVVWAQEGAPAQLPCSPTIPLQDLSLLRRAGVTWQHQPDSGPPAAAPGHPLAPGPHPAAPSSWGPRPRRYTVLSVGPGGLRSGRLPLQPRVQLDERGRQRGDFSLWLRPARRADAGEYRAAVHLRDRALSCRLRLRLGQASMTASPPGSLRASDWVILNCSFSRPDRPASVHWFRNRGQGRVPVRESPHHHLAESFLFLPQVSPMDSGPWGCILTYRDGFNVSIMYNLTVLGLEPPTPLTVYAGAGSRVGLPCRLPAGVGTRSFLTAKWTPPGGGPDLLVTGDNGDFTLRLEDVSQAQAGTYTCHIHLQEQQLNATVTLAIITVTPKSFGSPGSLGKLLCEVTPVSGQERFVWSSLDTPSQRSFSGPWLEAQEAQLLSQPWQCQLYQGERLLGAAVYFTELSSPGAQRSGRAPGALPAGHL

T4: LAG-3-OFP(NCBI登录号:NP_002277.4) on HEK293细胞 (human, UniProt P18627 23-525)
T4 construct: whole, on cells; also called HEK-293-LAG3-OFP; HEK293-LAG-3
T4 sequence (looked up): T2 sequence (looked up)

B1: 对照抗体BMS-986016 (antibody, human IgG4 S228P, kappa, V domains shown)
VH: QVQLQQWGAGLLKPSETLSLTCAVYGGSFSDYYWNWIRQPPGKGLEWIGEINHRGSTNSNPSLKSRVTLSLDTSKNQFSLKLRSVTAADTAVYYCAFGYSDYEYNWFDPWGQGTLVTVSS
VL: EIVLTQSPATLSLSPGERATLSCRASQSISSYLAWYQQKPGQAPRLLIYDASNRATGIPARFSGSGSGTDFTLTISSLEPEDFAVYYCQQRSNWPLTFGQGTNLEIKR
B2: 人源化抗体hz7F10 (antibody, human IgG1, kappa, L234A L235A, V domains shown)
VH: EVQLVQSGAEVKKPGASVKVSCKASGVNIKDDYMHWVRQAPGQGLEWIGRIDPEDVETKYDPKFQGRVTITADTSTSTAYMELSSLRSEDTAVYYCARSFYSNYVNYFDQWGQGTLVTVSS
VL: DIQMTQSPSSLSASVGDRVTITCKASENVGTYVSWFQQKPGKAPKLLIYGASNRYTGVPSRFSGSGSGTDFTLTISSLQPEDFATYYCGQSYSYPYTFGQGTKLEIKR
notes: Humanised from mouse antibody 7F10; also called 裸抗体hz7F10; 抗LAG-3抗体hz7F10
B3: hz7F10-hzB6 (bispecific antibody, human IgG1, kappa, L234A L235A)
heavy: not shown
light: DIQMTQSPSSLSASVGDRVTITCKASENVGTYVSWFQQKPGKAPKLLIYGASNRYTGVPSRFSGSGSGTDFTLTISSLQPEDFATYYCGQSYSYPYTFGQGTKLEIKRTVAAPSVFIFPPSDEQLKSGTASVVCLLNNFYPREAKVQWKVDNALQSGNSQESVTEQDSKDSTYSLSSTLTLSKADYEKHKVYACEVTHQGLSSPVTKSFNRGEC
notes: Expressed transiently in HEK293 cells; also called 抗人LAG-3/PD-L1双特异抗体; LAG-3/PD-L1双特异抗体
B4: hz7F10-hzF2 (bispecific antibody, human IgG1, kappa, L234A L235A)
heavy: not shown
light: B3 light
notes: as for B3

Columns and labels:
[1] = target: T1, 鼠重组蛋白LAG-3(Cat:53069-M08H，北京义翘神州科技股份有限公司 …; assay: ELISA, antigen coated at 1 μg/mL
[2] = target: T2, LAG-3(NCBI登录号:NP_002277.4)全长, HEK293细胞表面; assay: flow cytometry on HEK293 cells transfected with full-length LAG-3
[3] = target: T3, 人LAG-3胞外区融合蛋白(义翘神州，Cat:16498-H08H); assay: SPR (Reichert 4SPR), antibody captured by anti-human Fc, antigen in flow
肿瘤细胞MBA-MD-231细胞表面的PD-L1 = target: T5, 肿瘤细胞MBA-MD-231细胞表面的PD-L1 (UniProt Q9NZQ7 19-290, limits assumed); assay: flow cytometry on MBA-MD-231 tumour cells
T5 construct: whole, on cells; also called 细胞表面PD-L1

[4] = target: T6, 人PD-L1 on CHO-PD-L1-CD3L细胞 (human, UniProt Q9NZQ7 19-290); assay: flow cytometry, double-positive cells (CFSE-labelled CHO-PD-L1-CD3L with HEK-293-LAG3-OFP)
T6 construct: whole, on cells; also called 高表达人PD-L1的CHO细胞

[5] = target: T4, LAG-3-OFP(NCBI登录号:NP_002277.4) on …; assay: as above
[6] = target: T7, 鼠PD-L1(Cat:50010-M08H，北京义翘神州科技股份有限公司) (mouse, UniProt Q9EP73 19-238); assay: ELISA, antigen coated at 1 μg/mL
T7 construct: also called 小鼠PD-L1
T7 sequence (Q9EP73 19-238 limits assumed, stated change not applied): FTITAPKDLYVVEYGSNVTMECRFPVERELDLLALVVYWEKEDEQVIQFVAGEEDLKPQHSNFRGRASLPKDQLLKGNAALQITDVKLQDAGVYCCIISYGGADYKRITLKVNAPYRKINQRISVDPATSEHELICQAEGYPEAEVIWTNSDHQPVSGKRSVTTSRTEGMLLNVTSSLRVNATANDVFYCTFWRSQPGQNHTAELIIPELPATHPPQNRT

T5 sequence (Q9NZQ7 19-290 limits assumed): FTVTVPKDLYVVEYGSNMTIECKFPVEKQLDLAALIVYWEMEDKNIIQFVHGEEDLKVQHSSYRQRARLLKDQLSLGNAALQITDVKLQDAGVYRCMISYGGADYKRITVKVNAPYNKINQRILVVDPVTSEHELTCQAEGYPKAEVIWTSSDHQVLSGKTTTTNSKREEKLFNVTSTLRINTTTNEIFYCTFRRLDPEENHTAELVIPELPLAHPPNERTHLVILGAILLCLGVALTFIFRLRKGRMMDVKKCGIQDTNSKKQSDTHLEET
T6 sequence (Q9NZQ7 19-290): as the sequence (Q9NZQ7 19-290 limits assumed) above

Binder | binding result [1] | binding result [2] | binding result [3] | binding result (肿瘤细胞MBA-MD-231细胞表面的PD-L1) | binding result [4] | binding result [5] | binding result [6]
B1 | no binding (tested: 1μg/mL) |  |  |  |  |  | 
B2 |  | binds | binds |  |  |  | 
B3 | no binding (tested: 1μg/mL) | binds | binds | binds | binds | binds | no binding (tested: 1μg/mL)
B4 | no binding (tested: 1μg/mL) | binds | binds | binds |  |  | no binding (tested: 1μg/mL)
